Laboratory results as given in patent US20200016207A1, “[…] c-MPL PROVIDES LIGAND-DEPENDENT CO-STIMULATION AND CYTOKINE SIGNALS TO TCR-ENGINEERED T CELLS” (Baylor College of Medicine, priority 2017, published 2020).

Biological target: hematopoietic growth factor receptor c-MPL (myeloproliferative leukemia), the receptor for thrombopoietin, transgenic on human T cells (Homo sapiens (Human)) (UniProt P40238)
Experiment: cell-based or functional assay

T cell expansion in TPO 50 ng/ml (cell number by day 7 from 3x10^6 cells): 7.44e+06 cells
Substance: recombinant human thrombopoietin (TPO) (from UniProt P40225 22-195) (ligand)
